The target of experiment [1] is T1, mature myostatin (recombinant, dimeric) (mouse polyprotein used for in-house …, UniProt O08689 268-376).
T1 construct: also called GDF-8; recombinant myostatin
T1 sequence: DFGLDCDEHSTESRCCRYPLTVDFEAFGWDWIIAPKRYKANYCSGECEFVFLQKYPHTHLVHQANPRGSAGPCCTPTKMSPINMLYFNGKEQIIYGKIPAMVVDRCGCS
Put plainly: myostatin binding ELISA, CHOK1 supernatants. As to the method:
The myostatin binding ELISA was carried out approximately according to this protocol. A 96-well ELISA plate was coated at 4° C. overnight with 10 ng/well recombinant myostatin. This plate was then washed 3-times in wash buffer (PBS, 0.1% Tween-20). The wells were blocked for 1 hour at room temperature with block solution (PBS, 0.1% Tween-20+1% bovine serum albumin [BSA]), before washing 3-times in wash buffer. Antibodies were then titrated out to a suitable concentration range (approximately 100 to 0.001 μg/ml), added to the plate and incubated for 1 hour at room temperature. The plate was then washed 3-times in wash buffer. An anti-mouse IgG HRP-conjugated antibody (P0260 by Dako, this reagent was used according to the manufacturer's instructions) was used to detect binding of mouse antibodies, such as 10B3. […] The plate was then washed 3-times in wash buffer and developed with an OPD substrate (from Sigma, used according to the manufacturer's instructions) and read at 490 nm on a plate reader.
The plasmids for each antibody were transfected into CHOK1 cells in duplicate and in two separate experiments. Antibodies produced in the CHOK1 cell supernatant were analysed for activity in the myostatin binding ELISA. […]
(ELISA stands for enzyme-linked immunosorbent assay.)

Experiment [2] addresses T1, mature myostatin (recombinant, dimeric). The experiment can be described thus: myostatin binding ELISA after 48 h at 37 C in 1% ammonium bicarbonate pH 9.0 (Examples 5.2, 4.2), A490.
Experiment [3] has the same target. The experiment can be described thus: cell-based or functional assay.
Experiment [4] shares this target. Put plainly: FORTEbio bio-layer interferometry, myostatin amine-coupled to sensor, 20 nM antibody, 1:1 fit. As to the method:
The affinity of 10B3 mouse parental and H2L2-C91S developability variant for recombinant myostatin was also assessed by FORTEbio™ (bio-layer inferometry) analysis. FORTEbio™ analyses were carried out by antigen capture. Myostatin (in-house, see above at 1.1) was coupled onto amine reactive biosensors by primary amine coupling in accordance with the manufacturer's instructions. Antibodies were then captured onto this surface at 20 nM concentrations. The data was analysed using the evaluation software inherent in the machine and the data analysed using 1:1 fit (see Table 16). Due to the limited number of myostatin molecules bound to the sensor surface and the low antibody concentration, avidity effects are reduced, enabling a more accurate measure of affinity compared to the Biacore analyses. […] However, due to the nature of the binding of the antibodies to myostatin, these values are mainly used for ranking purposes, and the affinity may not be representative of the affinity in vivo.
In general terms: In BLI a coated tip is dipped into the sample, and binding shifts an interference pattern.

Experiment [5] shares this target. The experiment can be described thus: BIAcore, low density myostatin surface, methods as in 4.3.
For experiment [6] the target is unchanged. The experiment can be described thus: cell-based or functional assay. The source holds these as a separate data set.
For experiment [7] the target is unchanged. The experiment can be described thus: cell-based or functional assay. This is another data set of the same source.
For experiment [8] the target is unchanged. The experiment can be described thus: myostatin binding ELISA, 10 ng/well recombinant myostatin coated, CHOK1 supernatants, anti-human kappa HRP, A490 (Examples 5.1, 4.2).
Experiment [9] has the same target. The experiment can be described thus: myostatin binding ELISA with purified antibody, 10 ng/well recombinant myostatin coated, anti-human kappa HRP, A490 (Examples 4.1, 4.2). As for the experimental part: (§1) The myostatin binding ELISA was carried out approximately according to this protocol. A 96-well ELISA plate was coated at 4° C. overnight with 10 ng/well recombinant myostatin. This plate was then washed 3-times in wash buffer (PBS, 0.1% Tween-20). The wells were blocked for 1 hour at room temperature with block solution (PBS, 0.1% Tween-20+1% bovine serum albumin [BSA]), before washing 3-times in wash buffer. Antibodies were then titrated out to a suitable concentration range (approximately 100 to 0.001 μg/ml), added to the plate and incubated for 1 hour at room temperature. The plate was then washed 3-times in wash buffer. An anti-mouse IgG HRP-conjugated antibody (P0260 by Dako, this reagent was used according to the manufacturer's instructions) was used to detect binding of mouse antibodies, such as 10B3. An anti-human kappa light chain HRP-conjugated antibody (A7164 by Sigma Aldridge, this reagent was used according to the manufacturer's instructions) was used to detect binding of humanized or chimeric antibodies, such as 10B3 chimera or H0L0. The plate was then washed 3-times in wash buffer and developed with an OPD substrate (from Sigma, used according to the manufacturer's instructions) and read at 490 nm on a plate reader.

Experiment [10] shares this target. Put plainly: myostatin binding ELISA after 48 h at 37 C in PBS (Examples 5.2, 4.2), A490.
The target is the same in experiment [11]. Put plainly: myostatin binding ELISA after 48 h at 37 C in 1% ammonium bicarbonate pH 9.0 (Examples 5.2, 4.2), A490. The source holds these as a separate data set.
Experiment [12] shares this target. The experiment can be described thus: BIAcore, low density myostatin surface, antibody analyte, 1:1 model. As to the method: (§2) Purified H0L0, H1L2 and H2L2 bound recombinant myostatin by BIAcore™ Recombinant myostatin was immobilised at three different densities (low, medium and high, to give R-max values of approximately 35, 120 and 350 RU's respectively) onto a BIAcore™ chip. Antibodies were passed over at 256, 64, 16, 4 and 1 nM. 0 nM antibody was used for double referencing and data was fitted to the 1:1 model.
On the technique in general: In SPR one partner is held on a chip, and binding of the other changes the refractive index at the surface.

The target is the same in experiment [13]. The experiment can be described thus: BIAcore, high density myostatin surface, antibody analyte, 1:1 model (poor fits). As to the method: as §2
For experiment [14] the target is unchanged. The experiment can be described thus: cell-based or functional assay. This is another data set of the same source.
The target is the same in experiment [15]. Put plainly: BIAcore, medium density myostatin surface, antibody analyte, 1:1 model (poor fits). As to the method:
as §2

The target is the same in experiment [16]. The experiment can be described thus: myostatin binding ELISA with purified antibody, 10 ng/well recombinant myostatin coated, anti-human kappa HRP, A490 (Examples 4.1, 4.2); the text says the CHOK1 material was hard to quantify. As for the experimental part:
as §1

For experiment [17] the target is unchanged. The experiment can be described thus: ProteOn XPR36, antibody captured from supernatant, myostatin analyte. As to the method:
The initial kinetic analyses for the CDRH3 screen were carried out on the ProteOn XPR36 (Biorad Laboratories). For residues R95 to P100_B, analysis was carried out using a Protein A/G capture surface (Pierce 21186) was used and for residues A100_C to V102, an anti-human IgG surface was used (Biacore/GE Healthcare BR-1008-39). Both capture surfaces were prepared similarly using primary amine coupling to immobilise the capture molecule on a GLM chip (Biorad Laboratories 176-5012). CDRH3 variants were captured directly on either the Protein A/G or anti-human IgG surface (depending on the residue mutated) from tissue culture supernatants from transient transfections expressing the particular variant of interest. After capture, in-house recombinant human myostatin (see 1.1 above) was used as an analyte at 256 nM, 32 nM, 4 nM, 0.5 nM and 0.0625 nM, with a buffer injection alone (i.e. 0 nM) used to double reference the binding curves. Following the myostatin binding event, the capture surfaces were regenerated: for the Protein A/G capture surface, 100 mM phosphoric acid was used to regenerate the capture surface; and for the anti-human IgG surface, 3M MgCl₂ was used to regenerate the capture surface; the regeneration removed the previously captured antibody ready for another cycle of capture and binding analysis. […]

As usually defined, the EC50 (read off the curve) is the concentration that produces a half-maximal response. By Kd is commonly meant a measure of binding affinity in units of concentration. For orientation: koff means the rate constant with which the complex falls apart. As usually defined, the kon is a measure of how fast the partners come together.

Where a chain is given by its changes, count along the chain named. Names may count otherwise. Like-named read-outs stand apart in the source and are kept apart here.

B1: 10B3 chimera N54D (HCLC-N54D) (antibody, human IgG1, kappa, V domains shown)
VH: EVQLQQSGPELVKPGASVKISCKASGYSFTGYFMHWVKQSHGNILDWIGNIYPYDGVSNYNQRFKAKATLTVDKSSSTAYMELRSLTSEDSAVYYCARRYYYGTGPADWYFDVWGTGTLVTVSS
VL: DIKMTQSPSSMYASLRERVTITCKASQDINSYLSWFQQKPGKSPKTLIYRANRLVDGVPSRFSGSGSGQDYSLTISSLEYEDMGIYYCLQCDEFPLTFGAGTKLELKR
In the case of B1, the binding result in experiment [1] is “no binding”.

B2: 10B3 chimera N54D & C91S (HCLC-N54D-C91S) (antibody, human IgG1, kappa, V domains shown)
VH: B1 VH
VL: B1 VL with C91S
Consider B2, for which the binding result in experiment [1] was “no binding”.

B3: H2L2 C91S (H2L2-C91S) (antibody, human IgG1, kappa, V domains shown)
VH: QVQLVQSGAEVKKPGASVKVSCKASGYSFTGYFMHWVRQAPGQGLEWMGNIYPYNGVSNYNQRFKARVTMTTDTSTSTAYMELRSLRSDDTAVYYCARRYYYGTGPADWYFDVWGQGTLVTVSS
VL: DIQMTQSPSSLSASVGDRVTITCKASQDINSYLSWFQQKPGKAPKSLIYRANRLVDGVPSKFSGSGSGTDYTLTISSLQPEDFATYYCLQSDEFPLTFGQGTKLEIKR
notes: Humanised, human IgG1/kappa; also called base molecule; base H2L2-C91S
B3: the “EC50 (read off the curve)” value in experiment [2] was about 1 nM. Further, the “Mean IC50, A204 in vitro activity assay (5 nM myostatin)” value in [3] turned out to be 5.14 nM. Further, in experiment [4], the dissociation constant (Kd) amounted to 0.073 nM, the dissociation rate constant (koff) was found to be 2.99e-05 s⁻¹ and the association rate constant (kon) worked out at 410000 M⁻¹ s⁻¹. Moreover, in experiment [5], the dissociation constant (Kd) is 16.6 nM. For the same molecule, in experiment [6], the “Mean IC50, A204 in vitro activity assay” value was determined as 9.26 nM. Further, the “Mean IC50, A204 in vitro activity assay” value in [7] worked out at 4.08 nM.

B4: H2L2 N54D (H2L2-N54D) (antibody, human IgG1, kappa, V domains shown)
VH: B3 VH with N55D
VL: B3 VL with S91C
As for B4, the binding result in experiment [8] was “no binding (tested: about 33 nM)”.

B5: H2L2 N54D & C91S (H2L2-N54D-C91S) (antibody, human IgG1, kappa, V domains shown)
VH: B3 VH with N55D
VL: B3 VL
Consider B5, for which the binding result in [8] is reported as “no binding”.

B6: H2L2 (antibody, human IgG1, kappa, V domains shown)
VH: B3 VH
VL: B3 VL with S91C
notes: Humanised, human IgG1 wild type/kappa
Turning to B6, the “EC50 (read off the curve)” value in experiment [9] was about 0.09 µg/mL; in [10], about 0.7 nM; in [11], about 0.6 nM; in experiment [16], about 0.1 µg/mL. Further, the Kd is 8.37 nM in [12], 1.47 nM in [13], 12 nM in experiment [5] and 3 nM in experiment [15]. Further, the off-rate constant (koff) worked out at 0.00268 s⁻¹ in experiment [12], 0.000216 s⁻¹ in experiment [13] and 0.000737 s⁻¹ in [15]. For the same molecule, the results for the kon in [12], in experiment [13] and in [15] were 321000 M⁻¹ s⁻¹, 147000 M⁻¹ s⁻¹ and 246000 M⁻¹ s⁻¹, respectively. Besides, the “Mean IC50, A204 in vitro activity assay” value worked out at 8.6 nM in experiment [14] and 10.1 nM in experiment [6].

B7: CDRH3 variant F100G_S of H2L2-C91S (antibody, human IgG1, kappa, V domains shown)
VH: B3 VH with F111S
VL: B3 VL
notes: tested only in the supernatant screen
For the molecule B7, the binding result in [17] is on record as “binds”.

The record behind these values is patent US20110256132A1 (published 2011).
